Measurements published in PMC4713166, “Chicken scFvs with an Artificial Cysteine for Site-Directed Conjugation” (PLoS ONE, 2016).

How the values were obtained:
[1] = target: T1, recombinant human Fc-tagged PSA (Homo sapiens, UniProt P07288); assay: ELISA; enzyme immunoassay: recombinant human Fc-tagged PSA coated on the plate (0.1 M NaHCO3 pH 8.6, overnight at 4 C), blocked with 3% BSA in PBS; 250 ng cotinine-conjugated scFv-C kappa fusion protein in 50 ul, 1 h at 37 C; HRP-conjugated anti-cotinine IgG1 or HRP-conjugated anti-human C kappa antibody, TMB, optical density at 450 nm; details: both partners purified
T1 construct: prostate-specific antigen (PSA), human; also called prostate-specific antigen; recombinant Fc-tagged PSA
T1 sequence (P07288 18-261): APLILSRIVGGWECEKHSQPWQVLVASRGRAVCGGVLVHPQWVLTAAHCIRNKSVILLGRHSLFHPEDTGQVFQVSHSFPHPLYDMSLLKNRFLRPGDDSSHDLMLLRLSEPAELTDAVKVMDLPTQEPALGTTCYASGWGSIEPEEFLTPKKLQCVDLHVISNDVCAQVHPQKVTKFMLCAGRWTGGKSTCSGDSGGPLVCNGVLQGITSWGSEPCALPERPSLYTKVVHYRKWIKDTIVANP

[2] = target: T1, recombinant human Fc-tagged PSA; assay: ELISA; phage enzyme immunoassay: recombinant human Fc-tagged PSA coated on the microtiter plate (5 ug/ml in PBS, overnight at 4 C), blocked with 3% BSA in PBS; scFv-displaying phages in culture supernatant; HRP-conjugated anti-M13 antibody, ABTS, optical density at 405 nm; details: one partner purified

Binder	binding result [1]	binding result [2]
charge-variant artificial H13 cysteine-mutant scFv RCK, scFv-C kappa fusion protein cotinine conjugate (scFv, V domains shown, VL as in m2; VH as in m6 (GenBank KP764767 with cysteine at Kabat H13), the flanking residues of H13 changed from QCP to RCK; source: HEK293F, transfected, purified (KappaSelect); reduced with TCEP-HCl, treated with dehydroascorbic acid, conjugated with GMBS-coupled cotinine) VH: AVTLDESGGGLRCKGGALSLVCKASGFTFSSYDMGWVRQAPGKGLEWVAGIDDDGSYPNYGPAVKGRATISRDNGQSTVRLQLNNLRAEDTGTYFCAKGIESDSDGYMTAEEIDAWGHGTEVIVSS VL: ALTQPSSVSANLGGTVKITCSGGYSYYGWYQQKSPGSAPVTVIYESTKRPSNIPSRFSGSTSGSTGTLTITGVQADDAAVYYCGSWDSSSVGIFGAGTTLTVL	binds	
artificial cysteine-mutant scFv H13 (QCP), scFv-pIII fusion protein displayed on phage (scFv, V domains shown, VL as in m2; Order VL-linker-VH worked out as for m2) VH: AVTLDESGGGLQCPGGALSLVCKASGFTFSSYDMGWVRQAPGKGLEWVAGIDDDGSYPNYGPAVKGRATISRDNGQSTVRLQLNNLRAEDTGTYFCAKGIESDSDGYMTAEEIDAWGHGTEVIVSS VL: ALTQPSSVSANLGGTVKITCSGGYSYYGWYQQKSPGSAPVTVIYESTKRPSNIPSRFSGSTSGSTGTLTITGVQADDAAVYYCGSWDSSSVGIFGAGTTLTVL		binds
charge-variant artificial H13 cysteine-mutant scFv DCE, scFv-C kappa fusion protein cotinine conjugate (scFv, V domains shown, VL as in m2; VH as in m6 (GenBank KP764767 with cysteine at Kabat H13), the flanking residues of H13 changed from QCP to DCE; also called DEC (as printed once); source: HEK293F, transfected, purified (KappaSelect); reduced with TCEP-HCl, treated with dehydroascorbic acid, conjugated with GMBS-coupled cotinine) VH: AVTLDESGGGLDCEGGALSLVCKASGFTFSSYDMGWVRQAPGKGLEWVAGIDDDGSYPNYGPAVKGRATISRDNGQSTVRLQLNNLRAEDTGTYFCAKGIESDSDGYMTAEEIDAWGHGTEVIVSS VL: ALTQPSSVSANLGGTVKITCSGGYSYYGWYQQKSPGSAPVTVIYESTKRPSNIPSRFSGSTSGSTGTLTITGVQADDAAVYYCGSWDSSSVGIFGAGTTLTVL	binds	
charge-variant artificial H13 cysteine-mutant scFv ECE, scFv-C kappa fusion protein cotinine conjugate (scFv, V domains shown, VL as in m2; VH as in m6 (GenBank KP764767 with cysteine at Kabat H13), the flanking residues of H13 changed from QCP to ECE; source: HEK293F, transfected, purified (KappaSelect); reduced with TCEP-HCl, treated with dehydroascorbic acid, conjugated with GMBS-coupled cotinine) VH: AVTLDESGGGLECEGGALSLVCKASGFTFSSYDMGWVRQAPGKGLEWVAGIDDDGSYPNYGPAVKGRATISRDNGQSTVRLQLNNLRAEDTGTYFCAKGIESDSDGYMTAEEIDAWGHGTEVIVSS VL: ALTQPSSVSANLGGTVKITCSGGYSYYGWYQQKSPGSAPVTVIYESTKRPSNIPSRFSGSTSGSTGTLTITGVQADDAAVYYCGSWDSSSVGIFGAGTTLTVL	binds	
artificial cysteine-mutant scFv L5, scFv-pIII fusion protein displayed on phage (scFv, V domains shown, VH as in m2; Order VL-linker-VH worked out as for m2) VH: AVTLDESGGGLQTPGGALSLVCKASGFTFSSYDMGWVRQAPGKGLEWVAGIDDDGSYPNYGPAVKGRATISRDNGQSTVRLQLNNLRAEDTGTYFCAKGIESDSDGYMTAEEIDAWGHGTEVIVSS VL: ALCQPSSVSANLGGTVKITCSGGYSYYGWYQQKSPGSAPVTVIYESTKRPSNIPSRFSGSTSGSTGTLTITGVQADDAAVYYCGSWDSSSVGIFGAGTTLTVL		binds
artificial cysteine-mutant scFv L6, scFv-pIII fusion protein displayed on phage (scFv, V domains shown, VH as in m2; Order VL-linker-VH worked out as for m2) VH: AVTLDESGGGLQTPGGALSLVCKASGFTFSSYDMGWVRQAPGKGLEWVAGIDDDGSYPNYGPAVKGRATISRDNGQSTVRLQLNNLRAEDTGTYFCAKGIESDSDGYMTAEEIDAWGHGTEVIVSS VL: ALTCPSSVSANLGGTVKITCSGGYSYYGWYQQKSPGSAPVTVIYESTKRPSNIPSRFSGSTSGSTGTLTITGVQADDAAVYYCGSWDSSSVGIFGAGTTLTVL		binds
charge-variant artificial H13 cysteine-mutant scFv ECD, scFv-C kappa fusion protein cotinine conjugate (scFv, V domains shown, VL as in m2; VH as in m6 (GenBank KP764767 with cysteine at Kabat H13), the flanking residues of H13 changed from QCP to ECD; source: HEK293F, transfected, purified (KappaSelect); reduced with TCEP-HCl, treated with dehydroascorbic acid, conjugated with GMBS-coupled cotinine) VH: AVTLDESGGGLECDGGALSLVCKASGFTFSSYDMGWVRQAPGKGLEWVAGIDDDGSYPNYGPAVKGRATISRDNGQSTVRLQLNNLRAEDTGTYFCAKGIESDSDGYMTAEEIDAWGHGTEVIVSS VL: ALTQPSSVSANLGGTVKITCSGGYSYYGWYQQKSPGSAPVTVIYESTKRPSNIPSRFSGSTSGSTGTLTITGVQADDAAVYYCGSWDSSSVGIFGAGTTLTVL	binds	
artificial cysteine-mutant scFv L5, scFv-C kappa fusion protein cotinine conjugate (scFv, V domains shown, VL as in m3: GenBank KP764766 with Kabat residue L5 replaced with cysteine; VH as in m2; that it was a cotinine conjugate of the scFv-C kappa protein is inferred from that detection; also called L5 mutant scFv; source: HEK293F, transfected, purified (KappaSelect); conjugated with GMBS-coupled cotinine) VH: AVTLDESGGGLQTPGGALSLVCKASGFTFSSYDMGWVRQAPGKGLEWVAGIDDDGSYPNYGPAVKGRATISRDNGQSTVRLQLNNLRAEDTGTYFCAKGIESDSDGYMTAEEIDAWGHGTEVIVSS VL: ALCQPSSVSANLGGTVKITCSGGYSYYGWYQQKSPGSAPVTVIYESTKRPSNIPSRFSGSTSGSTGTLTITGVQADDAAVYYCGSWDSSSVGIFGAGTTLTVL	binds	
artificial cysteine-mutant scFv H16, scFv-pIII fusion protein displayed on phage (scFv, V domains shown, VL as in m2; Order VL-linker-VH worked out as for m2) VH: AVTLDESGGGLQTPGCALSLVCKASGFTFSSYDMGWVRQAPGKGLEWVAGIDDDGSYPNYGPAVKGRATISRDNGQSTVRLQLNNLRAEDTGTYFCAKGIESDSDGYMTAEEIDAWGHGTEVIVSS VL: ALTQPSSVSANLGGTVKITCSGGYSYYGWYQQKSPGSAPVTVIYESTKRPSNIPSRFSGSTSGSTGTLTITGVQADDAAVYYCGSWDSSSVGIFGAGTTLTVL		binds
artificial cysteine-mutant scFv L7, scFv-pIII fusion protein displayed on phage (scFv, V domains shown, VH as in m2; Order VL-linker-VH worked out as for m2) VH: AVTLDESGGGLQTPGGALSLVCKASGFTFSSYDMGWVRQAPGKGLEWVAGIDDDGSYPNYGPAVKGRATISRDNGQSTVRLQLNNLRAEDTGTYFCAKGIESDSDGYMTAEEIDAWGHGTEVIVSS VL: ALTQCSSVSANLGGTVKITCSGGYSYYGWYQQKSPGSAPVTVIYESTKRPSNIPSRFSGSTSGSTGTLTITGVQADDAAVYYCGSWDSSSVGIFGAGTTLTVL		binds
